One block for each substance: values may come before it.
Assays:
[1] = molecular target: AbrB D62A (B. subtilis); experiment: SEC; analytical gel filtration (FPLC) on Superdex 75 5/150 GL; running buffer condition I: 50 mM HEPES pH 7.5, 300 mM NaCl, 2 mM β-mercaptoethanol, no glycerol; 100 µl protein applied; 0.2 ml/min; polymeric forms as % of the areas under the curve of all protein peaks
[2] = molecular target: AbrB E77A (B. subtilis); experiment: SEC; analytical gel filtration (FPLC) on Superdex 75 5/150 GL; running buffer condition II: 50 mM HEPES pH 7.5, 300 mM NaCl, 2 mM β-mercaptoethanol with 10% glycerol; 60 µl (100 µg) protein applied; 0.2 ml/min; polymeric forms as % of the areas under the curve of all protein peaks
[3] = molecular target: AbrB E77A (B. subtilis); experiment: SEC; analytical gel filtration (FPLC) on Superdex 75 5/150 GL; running buffer condition I: 50 mM HEPES pH 7.5, 300 mM NaCl, 2 mM β-mercaptoethanol, no glycerol; 100 µl protein applied; 0.2 ml/min; polymeric forms as % of the areas under the curve of all protein peaks
[4] = molecular target: AbrB E80A (B. subtilis); experiment: SEC; analytical gel filtration (FPLC) on Superdex 75 5/150 GL; running buffer condition II: 50 mM HEPES pH 7.5, 300 mM NaCl, 2 mM β-mercaptoethanol with 10% glycerol; 60 µl (100 µg) protein applied; 0.2 ml/min; polymeric forms as % of the areas under the curve of all protein peaks
[5] = molecular target: AbrB E80A (B. subtilis); experiment: SEC; analytical gel filtration (FPLC) on Superdex 75 5/150 GL; running buffer condition I: 50 mM HEPES pH 7.5, 300 mM NaCl, 2 mM β-mercaptoethanol, no glycerol; 100 µl protein applied; 0.2 ml/min; polymeric forms as % of the areas under the curve of all protein peaks
[6] = molecular target: AbrB E85A (B. subtilis); experiment: as above
[7] = molecular target: AbrB K71A (B. subtilis); experiment: SEC; analytical gel filtration (FPLC) on Superdex 75 5/150 GL; running buffer condition II: 50 mM HEPES pH 7.5, 300 mM NaCl, 2 mM β-mercaptoethanol with 10% glycerol; 60 µl (100 µg) protein applied; 0.2 ml/min; polymeric forms as % of the areas under the curve of all protein peaks
[8] = molecular target: AbrB K71A (B. subtilis); experiment: SEC; analytical gel filtration (FPLC) on Superdex 75 5/150 GL; running buffer condition I: 50 mM HEPES pH 7.5, 300 mM NaCl, 2 mM β-mercaptoethanol, no glycerol; 100 µl protein applied; 0.2 ml/min; polymeric forms as % of the areas under the curve of all protein peaks
[9] = molecular target: AbrB K76A (B. subtilis); experiment: as above
[10] = molecular target: AbrB K94A (B. subtilis); experiment: as above
[11] = molecular target: AbrB K94I (B. subtilis); experiment: SEC; analytical gel filtration (FPLC) on Superdex 75 5/150 GL; running buffer condition II: 50 mM HEPES pH 7.5, 300 mM NaCl, 2 mM β-mercaptoethanol with 10% glycerol; 60 µl (100 µg) protein applied; 0.2 ml/min; polymeric forms as % of the areas under the curve of all protein peaks
[12] = molecular target: AbrB K94I (B. subtilis); experiment: SEC; analytical gel filtration (FPLC) on Superdex 75 5/150 GL; running buffer condition I: 50 mM HEPES pH 7.5, 300 mM NaCl, 2 mM β-mercaptoethanol, no glycerol; 100 µl protein applied; 0.2 ml/min; polymeric forms as % of the areas under the curve of all protein peaks
[13] = molecular target: AbrB N88A (B. subtilis); experiment: as above
[14] = molecular target: AbrB N88D (B. subtilis); experiment: as above
[15] = molecular target: AbrB Q55A (B. subtilis); experiment: as above
[16] = molecular target: AbrB Q55E (B. subtilis); experiment: SEC; analytical gel filtration (FPLC) on Superdex 75 5/150 GL; running buffer condition II: 50 mM HEPES pH 7.5, 300 mM NaCl, 2 mM β-mercaptoethanol with 10% glycerol; 60 µl (100 µg) protein applied; 0.2 ml/min; polymeric forms as % of the areas under the curve of all protein peaks
[17] = molecular target: AbrB Q55E (B. subtilis); experiment: SEC; analytical gel filtration (FPLC) on Superdex 75 5/150 GL; running buffer condition I: 50 mM HEPES pH 7.5, 300 mM NaCl, 2 mM β-mercaptoethanol, no glycerol; 100 µl protein applied; 0.2 ml/min; polymeric forms as % of the areas under the curve of all protein peaks
[18] = molecular target: AbrB Q81A (B. subtilis); experiment: as above
[19] = molecular target: AbrB Q87A (B. subtilis); experiment: as above
[20] = molecular target: AbrB Q89A (B. subtilis); experiment: as above
[21] = molecular target: AbrBQ81E (B. subtilis); experiment: SEC; analytical gel filtration (FPLC) on Superdex 75 5/150 GL; running buffer condition II: 50 mM HEPES pH 7.5, 300 mM NaCl, 2 mM β-mercaptoethanol with 10% glycerol; 60 µl (100 µg) protein applied; 0.2 ml/min; polymeric forms as % of the areas under the curve of all protein peaks
[22] = molecular target: AbrBQ81E (B. subtilis); experiment: SEC; analytical gel filtration (FPLC) on Superdex 75 5/150 GL; running buffer condition I: 50 mM HEPES pH 7.5, 300 mM NaCl, 2 mM β-mercaptoethanol, no glycerol; 100 µl protein applied; 0.2 ml/min; polymeric forms as % of the areas under the curve of all protein peaks
[23] = molecular target: AbrBQ81K, identical with the AbrB of B. amyloliquefaciens FZB45 (B. subtilis (with Q81K: B. amyloliquefaciens FZB45)); experiment: as above
[24] = molecular target: AbrBR15A (B. subtilis); experiment: SEC; analytical gel filtration (FPLC) on Superdex 75 5/150 GL; running buffer condition II: 50 mM HEPES pH 7.5, 300 mM NaCl, 2 mM β-mercaptoethanol with 10% glycerol; 60 µl (100 µg) protein applied; 0.2 ml/min; polymeric forms as % of the areas under the curve of all protein peaks
[25] = molecular target: AbrBR15A (B. subtilis); experiment: SEC; analytical gel filtration (FPLC) on Superdex 75 5/150 GL; running buffer condition I: 50 mM HEPES pH 7.5, 300 mM NaCl, 2 mM β-mercaptoethanol, no glycerol; 100 µl protein applied; 0.2 ml/min; polymeric forms as % of the areas under the curve of all protein peaks
[26] = molecular target: wild-type AbrB of B. subtilis 168 (His6-AbrB) (B. subtilis); experiment: SEC; analytical gel filtration (FPLC) on Superdex 75 5/150 GL; running buffer condition II: 50 mM HEPES pH 7.5, 300 mM NaCl, 2 mM β-mercaptoethanol with 10% glycerol; 60 µl (100 µg) protein applied; 0.2 ml/min; polymeric forms as % of the areas under the curve of all protein peaks
[27] = molecular target: wild-type AbrB of B. subtilis 168 (His6-AbrB) (B. subtilis); experiment: SEC; analytical gel filtration (FPLC) on Superdex 75 5/150 GL; running buffer condition I: 50 mM HEPES pH 7.5, 300 mM NaCl, 2 mM β-mercaptoethanol, no glycerol; 100 µl protein applied; 0.2 ml/min; polymeric forms as % of the areas under the curve of all protein peaks

% of the protein (AUC) in the form with n 4.1 [1]: 94% | % of the protein (AUC) in the form with n 8.2 [1]: 6%
Substance: AbrB D62A (natural protein)

% of the protein (AUC) in the form with n 4.7 [2]: 94% | % of the protein (AUC) in the form with n 55.5 [2]: 6% | % of the protein (AUC) in the form with n 4.1 [3]: 83% | % of the protein (AUC) in the form with n 8.2 [3]: 17%
Substance: AbrB E77A (natural protein)

% of the protein (AUC) in the form with n 4.5 [4]: 90% | % of the protein (AUC) in the form with n 56.3 [4]: 10% | % of the protein (AUC) in the form with n 3.9 [5]: 78% | % of the protein (AUC) in the form with n 8.2 [5]: 22%
Substance: AbrB E80A (natural protein)

% of the protein (AUC) in the form with n 4.0 [6]: 98% | % of the protein (AUC) in the form with n 8.2 [6]: 2%
Substance: AbrB E85A (natural protein)

% of the protein (AUC) in the form with n 3.9 [7]: > 95% | stoichiometry N [7]: 3.9 | % of the protein (AUC) in the form with n 4.3 [8]: 86% | % of the protein (AUC) in the form with n 8.5 [8]: 14%
Substance: AbrB K71A (natural protein)

% of the protein (AUC) in the form with n 4.0 [9]: > 95% | stoichiometry N [9]: 4
Substance: AbrB K76A (natural protein)

% of the protein (AUC) in the form with n 4.1 [10]: 93% | % of the protein (AUC) in the form with n 8.2 [10]: 7%
Substance: AbrB K94A (natural protein)

% of the protein (AUC) in the form with n 4.1 [11]: > 95% | stoichiometry N [11]: 4.1 | % of the protein (AUC) in the form with n 4.7 [12]: 65.6% | % of the protein (AUC) in the form with n 13.6 [12]: 34.4% | % of the protein in larger polymeric forms [12]: < 30%
Substance: AbrB K94I (natural protein)

% of the protein (AUC) in the form with n 4.5 [13]: 91% | % of the protein (AUC) in the form with n 8.1 [13]: 9%
Substance: AbrB N88A (natural protein)

% of the protein (AUC) in the form with n 4.1 [14]: 93% | % of the protein (AUC) in the form with n 8.3 [14]: 8%
Substance: AbrB N88D (natural protein)

% of the protein (AUC) in the form with n 3.9 [15]: 92% | % of the protein (AUC) in the form with n 8.1 [15]: 8%
Substance: AbrB Q55A (natural protein)

% of the protein (AUC) in the form with n 3.8 [16]: > 95% | stoichiometry N [16]: 3.8 | % of the protein (AUC) in the form with n 4.3 [17]: 49% | % of the protein (AUC) in the form with n 12.3 [17]: 51%
Substance: AbrB Q55E (natural protein)

% of the protein (AUC) in the form with n 4.4 [18]: 94% | % of the protein (AUC) in the form with n 8.5 [18]: 6%
Substance: AbrB Q81A (natural protein)

% of the protein (AUC) in the form with n 4.5 [19]: 93% | % of the protein (AUC) in the form with n 8.1 [19]: 7%
Substance: AbrB Q87A (natural protein)

% of the protein (AUC) in the form with n 4.8 [20]: 93% | % of the protein (AUC) in the form with n 8.1 [20]: 7%
Substance: AbrB Q89A (natural protein)

% of the protein (AUC) in the form with n 4.1 [21]: > 95% | stoichiometry N [21]: 4.1 | % of the protein (AUC) in the form with n 3.9 [22]: 78% | % of the protein (AUC) in the form with n 8.1 [22]: 22%
Substance: AbrBQ81E (natural protein)

% of the protein (AUC) in the form with n 4.0 [23]: > 95% | stoichiometry N [23]: 4
Substance: AbrBQ81K, identical with the AbrB of B. amyloliquefaciens FZB45 (natural protein)

% of the protein (AUC) in the form with n 40.4 [24]: 10% | % of the protein (AUC) in the forms with 12< n >1 [24]: 90% | % of the protein (AUC) in the form with n 4.1 [25]: 57.5% | % of the protein (AUC) in the form with n 8.0 [25]: 42.5%
Substance: AbrBR15A (natural protein)

% of the protein (AUC) in the form with n 4.8 [26]: > 95% | stoichiometry N [26]: 4.8 | % of the protein (AUC) in the form with n 4.1 [27]: 87% | % of the protein (AUC) in the form with n 8.2 [27]: 13%
Substance: wild-type AbrB of B. subtilis 168 (His6-AbrB) (natural protein)

— PMC4022651, “Substitutional Analysis of the C-Terminal Domain of AbrB Revealed Its Essential Role in DNA-Binding Activity”
